Patent publication US10704056B2, “Constitutively active ABA receptor mutants” (The Regents of the University of California, priority 2011, dated 2020)

System: ABA-regulated genes Em6, LEA and Rd29b
Test: qRT-PCR of ABA-regulated genes in imbibed seeds
Format: in vivo, Arabidopsis
Conditions: seeds imbibed 32 hours, no ABA treatment; 35S-driven lines
Protocol: To investigate if other ABA responses are affected in the PYL2^CA3 lines, we profiled the expression levels of several ABA-regulated genes using quantitative RT-PCR (qRT-PCR). For these experiments, seeds of Col, 35S::PYL2, and two independent 35S:: PYL2^CA3 transgenic lines were imbibed for 32 hours in either water or 5 μM ABA at room temperature under continuous illumination, after which RNA was isolated using Concert™ Plant RNA Reagent and utilized in qRT-PCR reactions using primers for the ABA-regulated genes Em6 (At2g40170), LEA (At2g21490), and Rd29b (At5g52300). Biological duplicates with triple technical replicate measurements were conducted and gene expression levels were determined. […] Real-time quantitative PCR analysis was performed by ΔΔCt method of relative quantification. […]
Wild type or transgenic lines were imbibed for 32 hours in either water or 5 μM ABA at room temperature under continuous illumination, after which RNA was isolated using Concert™ Plant RNA Reagent followed by LiCl2 precipitation and DNase treated using RNase-free DNAse (Ambion). […] Biological duplicates with triple technical replicate measurements were conducted and gene expression levels were determined. […] Real-time quantitative PCR analysis was performed by ΔΔCt method of relative quantification. […]

B1: PYL2^CA3: PYL2 mutant (H65P, V87F, F165V); expressed in plants as 35S-driven GFP fusion (protein)
chain: HHHHHHMSSSPAVKGLTDEEQKTLEPVIKTYHQFEPDPTTCTSLITQRIHAPASVVWPLIRRFDNPERYKPFVKRCRLISGDGDVGSVREVTFISGLPASTSTERLEFVDDDHRVLSFRVVGGEHRLKNYKSVTSVNEFLNQDSGKVYTVVLESYTVDIPEGNTEEDTKMVVDTVVKLNLQKLGVAATSAPMHDDE
- levels of ABA-regulated genes (Em6, LEA, Rd29b): elevated levels of ABA-regulated genes
